Entries after “also recorded” stand apart in the source; their conditions may differ. Values belong to the molecule of their own block, whether it stands above or below them.
How the values were obtained:
[1] = tested on: EGFR solubilized from A431 membranes; experiment: Competitive binding of purified antibodies against biotin-labelled MAb 425 (Example 11); design: species or system human; conditions: competition with biotin-labelled MAb 425, inhibition curves FIG. 10
Description: Biotin-labelled MAb 425 was Used to compete with unlabelled MAb 425 or derivates for binding to EGFR. Biotin-labelling occurred according to standard methods. EGFR was solubilized from A431 membranes by standard methods. A431 cells were commercially purchased. Detection was done after incubation with POD-conjugated streptavidin and substrate.

EGFR protein [2] = experiment: Competition binding assay with biotinylated murine MAb 425 (cell supernatants); design: species or system human; conditions: unpurified COS cell supernatants; relative levels of binding, not accurate affinity
Description: Murine MAb 425 was biotinylated using a correspondingly purchasable kit. ELISA plates were coated with an optimal dilution of the EGFR protein. Dilutions of the COS cell supernatants, in a volume of 50 μl, were mixed with 50 μl of the biotinylated murine MAb 425 (estimated by ELISA to be 1.75 μg/ml). Each COS cell supernatant was tested in duplicate. Plates were incubated at room temperature, overnight. Bound biotinylated murine MAb 425 was detected by the addition of a purchasable streptavidin horseradish peroxidase complex. A control with no competitor present allowed a value of percentage of inhibition or blocking to be calculated for each COS cell supernatant as follows: […]

EGFR protein [3] = experiment: ELISA for antigen binding to EGFR; conditions: transfected cell supernatants, detection with anti-human IgG; VH versions co-transfected with RVL a425, ranked: highest > followed by > then followed by > low > never detectable
Description: Human IgG present in COS cell supernatants was detected by ELISA: In the ELISA assay for human IgG, 96-well plates were coated with goat anti-human IgG (whole molecule) and human IgG in the samples that bound to the plates was detected using alkaline phosphatase-conjugated goat anti-human IgG (gamma-chain specific). Purchasable purified human IgG was used as a standard. Binding to the antigen recognized by MAb 425 was determined in a second ELISA. Plates were coated with an EGFR protein preparation (obtainable, for example, according to Rodeck et al., 1980) and antibodies binding to EGFR were detected using either an anti-human IgG (gamma-chain specific) peroxidase conjugate (for chimeric and reshaped human antibodies) or an anti-mouse IgG (whole molecule) peroxidase conjugate (for the mouse MAb 425 antibody) (both conjugates supplied by Sigma). Purified murine MAb 425 was used as a standard.

[4] = tested on: EGF-receptor positive membranes (A431); experiment: Competition of 125I-labelled EGF and antibodies for EGF-receptor, SPA (Example 12); type: binding, human; conditions: purified antibodies, 125I-EGF, FIG. 11
Description: Different probes of purified murine, chimeric and reshaped MAbs 425 were tested for their potency to compete with EGF regarding their binding to EGFR. The test was performed by competing ^125 I-labelled EGF (Amersham Corp., GB) and various antibodies for binding to EGF-receptor positive membranes (A431). The test system is based on SPA technology (Amersham).

[5] = tested on: epidermoid and colorectal carcinoma-derived cell lines; conditions: in vitro; cited from earlier work
[6] = tested on: human epidermal growth factor receptor (EGFR); conditions: cited from earlier work
[7] = target: T1, EGFR protein preparation (epidermal growth factor receptor) (human, UniProt P00533); experiment: competition ELISA on EGFR-coated plates, competitor biotinylated murine MAb 425 (FIG. 7, Panel B)
[8] = target: T1, EGFR protein preparation (epidermal …); experiment: antigen-binding ELISA on EGFR protein, cell supernatants (FIG. 8, Panel A)
[9] = target: T1, EGFR protein preparation (epidermal …); experiment: antigen-binding ELISA on EGFR protein, COS supernatants, with RVL a425 (FIG. 6)
[10] = target: T1, EGFR protein preparation (epidermal …); experiment: antigen-binding ELISA on EGFR protein, supernatant of co-transfected cells
[11] = target: T1, EGFR protein preparation (epidermal …); experiment: antigen-binding ELISA on EGFR protein, COS supernatants (FIG. 6)
[12] = target: T1, EGFR protein preparation (epidermal …); experiment: antigen-binding ELISA on EGFR protein, cell supernatants

Molecule: Chimeric 425 antibody: mouse 425 VL and VH regions with human kappa and gamma-1 constant regions
binding potency (avidity) to EGFR [1]: similar
competition with labelled mouse 425 antibody for binding to antigen (percent inhibition of binding, relative avidity) (EGFR protein [2]): just slightly less than that obtained when unlabelled mouse 425 antibody is competed with labelled mouse 425 antibody
binding to EGFR in antigen-binding ELISA (EGFR protein [3]): binds well to EGFR protein
potency to compete with EGF for binding to EGFR [4]: the same

B1: reshaped human 425 antibody with RVL a425 and RVH i425 (antibody, V domains shown)
VH: QVQLVQSGAEVKKPGASVKVSCKASGYTFTSHWMHWVRQAPGQGLEWVGEFNPSNGRTNYNEKFKSKATMTVDTSTNTAYMELSSLRSEDTAVYYCASRDYDYDGRYFDYWGQGTLVTVSS
VL: DIQMTQSPSSLSASVGDRVTITCSASSSVTYMYWYQQKPGKAPKLLIYDTSNLASGVPSRFSGSGSGTDFTFTISSLQPEDIATYYCQQWSSHIFTFGQGTKVEIK
binding result [7]: binds

B2: reshaped human 425 antibody with RVL b425 and RVH c425 (antibody, V domains shown)
VH: QVQLVQSGAEVKKPGASVKVSCKASGYTFSSHWMHWVRQAPGQGLEWVGEFNPSNGRTNYNEKFKSKATMTVDTSTNTAYMELSSLRSEDTAVYYCASRDYDYDGRYFDYWGQGTLVTVSS
VL: DIQMTQSPSSLSASVGDRVTITCSASSSVTYMYWYQQKPGKAPKLLIYDTSNLASGVPSRFSGSGSGTDYTFTISSLQPEDIATYYCQQWSSHIFTFGQGTKVEIK
binding result [8]: binds

B3: reshaped human 425 antibody with RVL a425 and RVH c425 (antibody, V domains shown)
VH: QVQLVQSGAEVKKPGASVKVSCKASGYTFSSHWMHWVRQAPGQGLEWVGEFNPSNGRTNYNEKFKSKATMTVDTSTNTAYMELSSLRSEDTAVYYCASRDYDYDGRYFDYWGQGTLVTVSS
VL: DIQMTQSPSSLSASVGDRVTITCSASSSVTYMYWYQQKPGKAPKLLIYDTSNLASGVPSRFSGSGSGTDFTFTISSLQPEDIATYYCQQWSSHIFTFGQGTKVEIK
binding result [9]: binds

B4: reshaped human 425 antibody with RVL a425 and RVH h425 (antibody, V domains shown)
VH: QVQLVQSGAEVKKPGASVKVSCKASGYTFTSHWMHWVRQAPGQGLEWVGEFNPSNGRTNYNEKFKSRVTMTVDTSTNTAYMELSSLRSEDTAVYYCASRDYDYDGRYFDYWGQGTLVTVSS
VL: DIQMTQSPSSLSASVGDRVTITCSASSSVTYMYWYQQKPGKAPKLLIYDTSNLASGVPSRFSGSGSGTDFTFTISSLQPEDIATYYCQQWSSHIFTFGQGTKVEIK
binding result [9]: binds

B5: antibody with reshaped human 425 light chain version a and chimeric 425 heavy chain (antibody, V domains shown)
VH: QVQLQQPGAELVKPGASVKLSCKASGYTFTSHWMHWVKQRAGQGLEWIGEFNPSNGRTNYNEKFKSKATLTVDKSSSTAYMQLSSLTSEDSAVYYCASRDYDYDGRYFDYWGQGTTLTVSS
VL: DIQMTQSPSSLSASVGDRVTITCSASSSVTYMYWYQQKPGKAPKLLIYDTSNLASGVPSRFSGSGSGTDFTFTISSLQPEDIATYYCQQWSSHIFTFGQGTKVEIK
binding result [10]: binds

The next lines start with results.

binding potency (avidity) to EGFR [1]: similar
Molecule: MAb 425: murine monoclonal antibody raised against human A431 carcinoma cells, binds EGFR; hybridoma ATCC HB 9629 [reference compound]
tumor cell growth [5]: suppress tumor cell growth
binding to EGFR epitope [6]: bind to a polypeptide epitope on the external domain of the human epidermal growth factor receptor (EGFR)
inhibition of EGF binding to EGFR ([6]; low and high affinity EGFR sites): inhibit the binding of epidermal growth factor (EGF) at both low and high affinity EGFR sites
potency to compete with EGF for binding to EGFR [4]: the same; also recorded: nearly identical

binding result [10]: no binding
B6: antibody with chimeric 425 light chain and reshaped human 425 heavy chain version a (antibody, V domains shown)
VH: QVQLVQSGAEVKKPGASVKVSCKASGYTFSSHWMHWVRQAPGQGLEWVGEFNPSNGRTNYNEKFKSRVTMTLDTSTNTAYMELSSLRSEDTAVYYCASRDYDYDGRYFDYWGQGTLVTVSS
VL: QIVLTQSPAIMSASPGEKVTMTCSASSSVTYMYWYQQKPGSSPRLLIYDTSNLASGVPVRFSGSGSGTSYSLTISRMEAEDAATYYCQQWSSHIFTFGSGTKLEIK

binding result [11]: no binding
B7: reshaped human 425 antibody with RVL a425 and RVH d425 (antibody, V domains shown)
VH: QVQLVQSGAEVKKPGASVKVSCKASGYTFSSHWMHWVRQAPGQGLEWIGEFNPSNGRTNYNEKFKSRVTMTLDTSTNTAYMELSSLRSEDTAVYYCASRDYDYDGRYFDYWGQGTLVTVSS
VL: DIQMTQSPSSLSASVGDRVTITCSASSSVTYMYWYQQKPGKAPKLLIYDTSNLASGVPSRFSGSGSGTDFTFTISSLQPEDIATYYCQQWSSHIFTFGQGTKVEIK

binding result [12]: binds
B8: reshaped human 425 antibody with RVL b425 and RVH b425 (antibody, V domains shown)
VH: QVQLVQSGAEVKKPGASVKVSCKASGYTFSSHWMHWVRQAPGQGLEWVGEFNPSNGRTNYNEKFKSRVTMTVDTSTNTAYMELSSLRSEDTAVYYCASRDYDYDGRYFDYWGQGTLVTVSS
VL: DIQMTQSPSSLSASVGDRVTITCSASSSVTYMYWYQQKPGKAPKLLIYDTSNLASGVPSRFSGSGSGTDYTFTISSLQPEDIATYYCQQWSSHIFTFGQGTKVEIK

binding result [9]: binds
B9: reshaped human 425 antibody with RVL a425 and RVH b425 (antibody, V domains shown)
VH: QVQLVQSGAEVKKPGASVKVSCKASGYTFSSHWMHWVRQAPGQGLEWVGEFNPSNGRTNYNEKFKSRVTMTVDTSTNTAYMELSSLRSEDTAVYYCASRDYDYDGRYFDYWGQGTLVTVSS
VL: DIQMTQSPSSLSASVGDRVTITCSASSSVTYMYWYQQKPGKAPKLLIYDTSNLASGVPSRFSGSGSGTDFTFTISSLQPEDIATYYCQQWSSHIFTFGQGTKVEIK

binding result [9]: binds
B10: reshaped human 425 antibody with RVL a425 and RVH f425 (antibody, V domains shown)
VH: QVQLVQSGAEVKKPGASVKVSCKASGYTFSSHWMHWVRQAPGQGLEWIGEFNPSNGRTNYNEKFKSKATMTVDTSTNTAYMELSSLRSEDTAVYYCASRDYDYDGRYFDYWGQGTLVTVSS
VL: DIQMTQSPSSLSASVGDRVTITCSASSSVTYMYWYQQKPGKAPKLLIYDTSNLASGVPSRFSGSGSGTDFTFTISSLQPEDIATYYCQQWSSHIFTFGQGTKVEIK

binding result [10]: no binding
B11: reshaped human 425 antibody with RVL a425 and RVH a425 (antibody, V domains shown)
VH: QVQLVQSGAEVKKPGASVKVSCKASGYTFSSHWMHWVRQAPGQGLEWVGEFNPSNGRTNYNEKFKSRVTMTLDTSTNTAYMELSSLRSEDTAVYYCASRDYDYDGRYFDYWGQGTLVTVSS
VL: DIQMTQSPSSLSASVGDRVTITCSASSSVTYMYWYQQKPGKAPKLLIYDTSNLASGVPSRFSGSGSGTDFTFTISSLQPEDIATYYCQQWSSHIFTFGQGTKVEIK

From patent US5558864A, “Humanized and chimeric anti-epidermal growth factor receptor monoclonal antibodies” (Merck Patent Gesellschaft Mit Beschrankter Haftung, dated 1996)
